Test results from US20200247897A1 (Genmab, published 2020).
Blank lines part the entries; values can stand above or below the binder they belong to.

Legend:
murine DR5 = molecular target: T1, murine DR5 (mouse (Mus musculus), UniProt Q9QZM4 53-381); assay: flow cytometry on transfected CHO cells
T1 construct: also called mouse DR5

[1] = molecular target: T2, human DR5 (death receptor 5) on DR5-positive human colon cancer cells (human, UniProt O14763 56-440); assay: flow cytometry on HCT 116 cells
T2 construct: Endogenous receptor of the cell lines; also called CD262; TRAILR2

[2] = molecular target: T3, cynomolgus monkey DR5 protein with deletion of amino acids 185-213 and death domain loss-of-function mutation … (cynomolgus monkey (Macaca fascicularis)); assay: flow cytometry on cynomolgus DR5-transfected CHO cells; four experiments
T3 construct: also called Cyno DR5Mfdel-K420N
T3 chain: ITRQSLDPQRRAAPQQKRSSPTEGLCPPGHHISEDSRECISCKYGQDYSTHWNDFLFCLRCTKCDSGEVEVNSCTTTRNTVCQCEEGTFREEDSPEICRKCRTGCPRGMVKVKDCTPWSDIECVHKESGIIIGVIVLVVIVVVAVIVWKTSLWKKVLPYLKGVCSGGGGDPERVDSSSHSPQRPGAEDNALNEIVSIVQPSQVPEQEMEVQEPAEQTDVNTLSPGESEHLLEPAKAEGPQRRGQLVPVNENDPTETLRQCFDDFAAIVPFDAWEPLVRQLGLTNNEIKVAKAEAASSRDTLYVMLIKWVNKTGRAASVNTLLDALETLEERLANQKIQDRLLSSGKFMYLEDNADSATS

T1 sequence (Q9QZM4 53-381 limits assumed): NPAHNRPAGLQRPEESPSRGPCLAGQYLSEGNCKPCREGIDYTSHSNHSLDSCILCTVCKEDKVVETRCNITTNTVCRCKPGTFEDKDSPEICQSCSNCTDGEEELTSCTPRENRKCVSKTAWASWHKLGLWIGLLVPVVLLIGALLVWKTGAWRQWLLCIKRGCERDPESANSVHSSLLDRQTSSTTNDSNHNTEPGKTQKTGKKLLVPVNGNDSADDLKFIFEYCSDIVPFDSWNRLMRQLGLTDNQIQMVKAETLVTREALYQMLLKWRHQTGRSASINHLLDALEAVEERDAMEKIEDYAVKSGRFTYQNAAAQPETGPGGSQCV

binding result (murine DR5): no binding (tested: 10 µg/mL)
B1: IgG1-hDR5-05-F405L (antibody, name in EU numbering)
heavy: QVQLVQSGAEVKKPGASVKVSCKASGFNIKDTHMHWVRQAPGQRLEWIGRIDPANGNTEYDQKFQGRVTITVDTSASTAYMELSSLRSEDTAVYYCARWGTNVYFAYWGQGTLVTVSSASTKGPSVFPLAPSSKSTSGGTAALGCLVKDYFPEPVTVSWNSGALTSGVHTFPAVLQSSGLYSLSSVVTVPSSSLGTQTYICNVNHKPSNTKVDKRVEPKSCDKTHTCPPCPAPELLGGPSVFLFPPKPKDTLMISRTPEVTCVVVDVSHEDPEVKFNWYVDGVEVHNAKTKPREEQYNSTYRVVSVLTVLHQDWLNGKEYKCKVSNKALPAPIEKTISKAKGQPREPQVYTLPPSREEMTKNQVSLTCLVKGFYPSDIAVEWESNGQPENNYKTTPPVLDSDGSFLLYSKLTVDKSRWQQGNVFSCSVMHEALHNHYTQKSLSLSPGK
light: DIQLTQSPSSLSASVGDRVTITCSASSSVSYMYWYQQKPGKAPKPWIYRTSNLASGVPSRFSGSGSGTDFTLTISSLQPEDFATYYCQQYHSYPPTFGGGTKVEIKRTVAAPSVFIFPPSDEQLKSGTASVVCLLNNFYPREAKVQWKVDNALQSGNSQESVTEQDSKDSTYSLSSTLTLSKADYEKHKVYACEVTHQGLSSPVTKSFNRGEC
notes: Expressed as IgG1,kappa; also called humanized DR5-05

B2: IgG1-hDR5-05-N55D-F405L (antibody, V domains shown)
VH: QVQLVQSGAEVKKPGASVKVSCKASGFNIKDTHMHWVRQAPGQRLEWIGRIDPADGNTEYDQKFQGRVTITVDTSASTAYMELSSLRSEDTAVYYCARWGTNVYFAYWGQGTLVTVSS
VL: DIQLTQSPSSLSASVGDRVTITCSASSSVSYMYWYQQKPGKAPKPWIYRTSNLASGVPSRFSGSGSGTDFTLTISSLQPEDFATYYCQQYHSYPPTFGGGTKVEIKR
binding result [1]: binds

B3: IgG1-hDR5-05-E430G (antibody)
heavy: not shown
light: B1 light
EC50 [2]: 0.17 µg/mL
